Measured values as given in patent US20220153835A1.

Columns and labels:
[1] = target: LAG-3 expressed on cells (species not stated at the experiment) (human) (UniProt P18627)
[2] = target: LAG-3-huIgG1 Fc fusion protein; experiment: competition binding assay, LAG-3-Ig on Raji cells

IFN-γ expression, cells stimulated with CMV peptides (fold increase) [1]: 1.4 | IFN-γ expression, cells stimulated with anti-CD3 (0.1 µg/mL) (fold increase) [1]: 3 | IC50 [2]: 2.3 nM
B1: murine anti-LAG-3 mAb BAP050 (antibody, V domains shown)
VH: QIQLVQSGPELKKPGETVKISCKASGFTLTNYGMNWVRQTPGKGLKWMGWINTDTGEPTYADDFKGRFAFSLETSASTASLQINNLKNADTATYFCARNPPYYYGTNNAEAMDYWGQGTAVTVSS
VL: DIQMTQTTSSLSASLGDRVTISCSSSQDISNYLNWYQQKPDGTVKVLIYYTSTLHLGVPSRFSGSGSGTDYSLTISNLELEDIATYYCQQYYNLPWTFGGGTKLEIK
IFN-γ expression, cells stimulated with Staphylococcal enterotoxin B (SEB) (3 µg/mL) (fold increase) [1]: 1.6
